Measured values published in PMC8524982.

These sequences were tested on T1, His6-OsnR (Corynebacterium glutamicum), ORF:93dbb295 (assay: EMSA). Settings: 20 mM HEPES pH 7.4, 2.5 mM MgCl2, 75 mM KCl, 0.5 mM EDTA, 2 mM DTT, 10% glycerol, 1 ug poly d(I-C), 100 ng/ul BSA; 30 ng DNA in 20 ul, 30 C, 30 min; 5% PAGE ….
T1 sequence: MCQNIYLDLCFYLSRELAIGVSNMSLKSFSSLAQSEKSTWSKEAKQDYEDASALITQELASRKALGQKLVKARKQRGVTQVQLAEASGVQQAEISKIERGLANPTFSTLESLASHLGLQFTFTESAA

Question: How did the binding turn out when “TTTGGTGGTGGGCAATGCTGCGACCATCTTTATGAATCTCATTGGCTGCCGGGAAGGCCGCGACCCCTTGCTGCTCATCGCGGTTCTCACGTTCCCGCTGTATTGGCTGCTCATGAGCATTGCAGCGTTGAAAGGCACGTGGCAATTGATCACGCGACCATCCTATTGGGAGAAAACTGCCCACGGATTGGAGGCGTAAGCGGTGCCCATCGTCAAACCAATGCCGGCACTG (double strand) [cg0165 promoter]” was run?
Answer: binds

Question: How did the binding turn out when “CAAGCGTGGGGATTCCTGGCTCGATGCTCATGCTTCACTTCCTTATCTTTTGAAACCATGTGCAGCTGTTTTTCTCTTCATTTTTCTCTTCATACACTGACACAGTTCAACTCAATCAAATAGTCAACTATGCAAGGTAGTCGACTATGTGGCATAGTCGCCATAGTTGAGTTTTATTCATGGCTTTTAGCTAGGCGACTTTAGTTGAGGGCTTTTAGTTGAGGGCTTCCCAGCAGGGATGGTTAAGGAGAATTCAGTGAACCAACAGAGTAAAAAGTGGCTCGTACCGACACTGGT (double strand) [cg0026 promoter]” was run?
Answer: binds

Question: With “GGCTGCTCAGACATAAGATGTGCTCCTAATTTAGAAATCGGATGTGGGCTGGACTGGGAAGGCAACTAACTGGTGCTTTGTCGTCCACGTATCTCAACGCATATGACTATAAAAAGCTTCCCAAGTACCAGTTCAGTCTATAATTCGCGGTGTTATTGAGATGGTTTGAGGCTGGAAAGCTTCGATTGCAGCCAGTTGTTGAGTACTTCAGAGGCGTGATCTCTGGCGGGTTTCCTTGAGAGGAAAATATCGTGGCGAGCGTTGTCGATGAT (double strand) [mtr promoter]” as the sequence, how does the binding read?
Answer: no binding

Question: How did the binding turn out when “GGCGAGGCCACGTTCAATCTTGCTTATTTCTGCCTGTTGGACTCCAGAAGCTTCAGCAAGTTGAACTTGGGTGACTCCTCGTTGTTTCCGAGCCTTGACTAGTTTTTGGCCAAGAGCTTTTCGTGAGGCGAGTTCTTGAGTGATTAGCGCGGAAGCGTCCTCGTAATCTTG (double strand) [osnR ORF (+110 to +286)]” was run?
Answer: no binding

Question: How did the binding turn out when “ACCGCTTCTAAGCACCCAACTCGCCAAAACTAGGACAACAGGTCGCCGCAGACAGTCGACCGCTTAAAACGCCACACAGCACCCCACTTCACATAACCCCAAGTCGGAAACAAAAGCCCCCAACCTGCACAGATGTCAACTATTTCAACCAGCCAGAAACTATCTCCAAAAGCTAATAAAACCCTTGCACTGACAAATAAGGCGACCTACCATGACTCTGTTTCCAACACATAAAAAGGATAAAAAATGTCACTTTCAGTCGTCGAGGCG (double strand) [cg0404 promoter]” was run?
Answer: no binding
